The values below come from patent publication US12516145B2 (priority 2019, dated 2026).

A value given as a limit tells only on which side of the number the result lay.

Series [1] in a line: Transmission electron microscopy (particle size). Format: physicochemical. The note with it: for Rcore: estimated by TEM analysis.
Method: Dry-State Transmission Electron Microscopy (TEM): Twenty microliters of samples were applied onto a 400 mesh carbon grids (Ted Pella, INC.). The grids were observed on a Hitachi HT 7700 microscope operating at 120 kV. The images were recorded with a slow-scan charge-coupled device (CCD) camera (Veleta 2k×2k).
The nature of series [2]: Dynamic light scattering (hydrodynamic size). Particulars: for Dh: hydrodynamic diameter by DLS, photo-PISA at solids content of 15 wt. %; for Rh: hydrodynamic radius by DLS; for hydrodynamic diameter / size by DLS: in water (DIW). Format: physicochemical.
Method: (§2) Dynamic Light Scattering (DLS) and Zeta Potential Analysis: DLS and zeta potential analyses were conducted at room temperature on a Zetasizer Nano-ZS (Malvern). The laser for DLS was at a wavelength of 633 nm.
Series [3] can be described thus: Zeta potential analysis. Format: physicochemical. The note with it: room temperature.
Method: as §2
Series [4] concerns the target T1, thermolysin (Bacillus thermoproteolyticus, UniProt P00800). Particulars: for morphology change of micelles after treatment with thermolysin: TEM and DLS, spherical micelles before treatment. The procedure:
Transmission Electron Microscope (TEM): Twenty microliters of sample were applied onto a 400 mesh carbon grids (Ted Pella, INC.). The grids were observed on a Hitachi HT 7700 microscope operating at 120 kV. The images were recorded with a slow-scan charge-coupled device (CCD) camera (Veleta 2k×2k).
Dynamic Light Scattering (DLS): DLS analysis was conducted at room temperature on a Zetasizer Nano-ZS (Malvern). The laser for DLS was at a wavelength of 633 nm.
(§1) For enzyme-triggered cleavage experiments, the molar ratio of thermolysin to peptide was set to 1:300. Moreover, the temperature was set to 55° C. to achieve the optimal activity of thermolysin. For example, poly(PepAm21-co-DMA24) (P4, 1 mg, 0.87 μmol with respect to peptides, 300 equiv.) was dissolved in 1 ml of DPBS solution. Then thermolysin (0.1 mg, 2.9 nmol, 1 equiv.) was added into the polymer solution which was stirred in a preheated oil bath at 55° C. In the case of control experiments which involved using deactivated thermolysin, EDTA (100 equiv. to thermolysin) was utilized to capture the zinc and calcium ions, resulting in denaturing of thermolysin.

The subject of series [5] is thermolysin. The experiment in a line: thermolysin in DPBS solution, molar ratio of thermolysin to peptide 1:300. Particulars: 55° C.
In series [6] the target is T1, thermolysin. Particulars: thermolysin 1/300 equiv. to peptides, 55 °C, DPBS, HPLC. The procedure:
Analytical High-Performance Liquid Chromatography (HPLC): Analytical HPLC analysis of peptides was performed on a Jupiter 4μ Proteo 90A Phenomenex column (150×4.60 mm) using a Hitachi-Elite LaChrom L-2130 pump equipped with UV-Vis detector (Hitachi-Elite LaChrom L2420).
as §1

Series [7] has as its system trypsin. The experiment in a line: trypsin (0.1 μM) in PBS buffer (pH=7.4), molar ratio of trypsin to peptide 1:2000. Particulars: 37° C.
For series [8], the system named is HeLa cells. Description: CellTilter-Blue cell viability assay of KLA based materials (Example 1). More on the design: species or system human. Particulars: even at 100 μM with respect to peptide, 72 hours, 37 °C. As to the method:
Hela cells were purchased from ATCC. Cells were cultured at 37° C. under 5% CO2 in phenol-red containing Dulbecco's Modified Eagle Medium (DMEM; Gibco Life Tech., cat. #11960-044) supplemented with 10% fetal bovine serum (Omega Scientific, cat. #11140-050), sodium pyruvate (Gibco Life Tech., cat. #35050-061), L-glutamine (Gibco Life Tech., cat. #35050-061), and the antibiotics penicillin/streptomycin (Corning Cellgro, cat. #30-002-C1). Cells were grown in T75 culture flasks and subcultured at ˜75-80% confluency.
The cytotoxicity of materials was assessed using the CellTilter-Blue assay. HeLa cells were plated at a density of 5000 cells per well in a 96 well plate 18 hours prior to treatment. Materials were dissolved in DPBS at the desired concentration and added to the wells along with a 10% DMSO positive control. Cells were incubated for 72 hours at 37° C. Note that the concentration of all the materials is with respect to the peptide concentration to ensure that all peptides and polymers are fairly compared with respect to their therapeutic components. The media was removed and 80 μL of new media without phenol red was added followed by adding 20 μL of CellTilter-Blue reagent. The cells were incubated for 3 hours at 37° C. The fluorescence was measured at 560 nm excitation and 590 nm emission wavelength.

The subject of series [9] is trypsin. Description: Trypsin-induced cleavage (proteolytic resistance) by RP-HPLC. Format: in vitro ADME. The note with it: isolated enzyme trypsin; trypsin 0.1 μM, 200 μM peptide, PBS pH 7.4, 37 °C; read-out: peptide cleaved by trypsin within 1 h. As to the method:
For protease-triggered cleavage experiments, the molar ratio of trypsin to peptide was set to 1:2000. Moreover, the temperature was set to 37° C. to match the body temperature. For example, poly[(KLAAm10-co-DMA30)-b-(DAAm70-co-DMA30)](NP1, 0.9 mg, 0.2 μmol with respect to peptides, 2000 equiv.) was dissolved in 1 ml of DPBS solution. […] During the cleavage, aliquots were taken for HPLC analysis at predetermined time points.

The test system of series [10] is mitochondrial membrane potential of HeLa cells. The experiment in a line: Mitochondria membrane potential of HeLa cells with JC-1 probe. It is filed as cell-based, human. The note with it: 2 μM JC-1, excitation 488 nm, NP5 even after 30 min incubation. As to the method:
HeLa cells were plated in 4-well, glass bottom dishes at 30,000 cells per well in 500 μL medium. […] The cells were stained with 2 μM of JC-1 at 37° C. for 15 minutes, washed with PBS to remove any membrane-bound, non-internalized fluorophores, and returned to complete medium. For the positive control group, the cells were incubated with 50 μM CCCP and 2 μM of JC-1 probe in DPBS solution simultaneously for 15 min. Before the confocal observation, 1 drop of Hoechst 33342 dye was added to stain the nuclei. Confocal microscope was employed to observe the fluorescence of JC-1 monomer, J-aggregates and Hoechst dye.

The test system of series [11] is HeLa cells. The experiment in a line: CellTiter-Blue cell viability assay of nanoparticles (Example 2). Format: cell-based, human. Particulars: 72 h; for cytotoxicity in HeLa cells: 37 °C, concentration with respect to total KLA peptide content. The procedure:
Fluorescence Measurement: CellTiter-Blue® fluorescence measurements were recorded using a Perkin Elmer EnSpire multimode Plate Reader.
HeLa cells were grown in Dulbecco's modified Eagle medium (DMEM) supplemented with 10% fetal bovine serum (FBS), 1% penicillin-streptomycin. Cells were maintained at 37° C. and 5% CO2 with a relative humidity of 95%. HeLa cells were plated in 96-well plates at a density of 5000 per well and then left to attach for 24 h. Subsequently, the cells were treated with the polymers of various concentrations for the desired time followed by washing 3 times with PBS. Then CellTiter-Blue® at 10% (v/v) in complete media was added to each well and incubated for 2 h to allow the live cells to convert resazurin to fluorescent resorufin. The fluorescent signal (Excitation wavelength: 560 nm; Emission wavelength: 600 nm) was then analyzed by a plate reader. Three replicates were performed for each independent sample. 10% DMSO was used as a positive control and untreated cells in complete medium as a negative control. Viability is reported as a percentage of untreated cells.
Background: Alamar Blue is a resazurin reagent that responds to reducing activity.

Series [12] has as its system HeLa cells. The experiment in a line: Flow cytometry for uptake ability in HeLa cells (Example 1). Format: cell-based, human. Particulars: rhodamine B-labeled, 0.25 μM with respect to dye, 24 hours. The procedure:
Flow Cytometry: The cell uptake study was analyzed via flow cytometry using a BD FacsAria Ilu 4-Laser flow cytometer (Becton Dickinson Inc., USA). Mean fluorescence intensity and PE-A-histogram data was prepared for presentation using FlowJo v10.
For cellular uptake measurements, HeLa cells were plated in 12-well plates at a density of 1,000,000 per well and incubated for 24 hours in a 5% CO2 atmosphere at 37° C. 500 μL of 0.25 μM (with respect to rhodamine) KLA peptide, poly(KLAAm25-co-DMA75), poly(KLAAm25-co-DMA25), and poly(KLAAm10) in 10% FBS DMEM media without phenol red were incubated with the cells for 24 hours respectively. After triple washing with DPBS, 500 μL of 0.25% Trypsin-EDTA was added to each well for 10 min at 37° C. Cells were fixed with a 4% paraformaldehyde solution for 15 min at room temperature.
(A flow cytometer gives signals particle by particle.)

For series [13] the following is noted: cited from earlier work.
The conditions of series [14]: amine groups; cited from earlier work.

T1 sequence (P00800 233-548): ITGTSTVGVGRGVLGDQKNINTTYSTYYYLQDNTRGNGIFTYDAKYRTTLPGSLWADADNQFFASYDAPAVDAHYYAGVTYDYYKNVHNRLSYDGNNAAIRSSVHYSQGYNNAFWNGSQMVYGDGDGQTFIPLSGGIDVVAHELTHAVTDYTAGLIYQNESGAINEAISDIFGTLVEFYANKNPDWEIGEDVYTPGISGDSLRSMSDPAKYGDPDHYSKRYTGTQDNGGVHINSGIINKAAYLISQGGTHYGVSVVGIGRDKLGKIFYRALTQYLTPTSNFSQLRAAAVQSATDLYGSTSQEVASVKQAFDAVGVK

Consider “NP2: KLA peptide brush polymer nanoparticle: shell KLAAm 10, DMA 30; core DAAm 140, DMA 60 (KLAKLAKKLAKLAK)”, for which the Rcore in [1] was 28 nm. In series [2], the Dh amounted to 62 nm and the Rh is reported as 31 nm. The compound also showed a Zeta potential in series [3] of 56 mV.

Compound “poly[(KLAAm10-co-DMA10)-b-(DAAm140-co-DMA60)] (KLAKLAKKLAKLAK) [NP4, KLA peptide brush polymer nanoparticle]” yielded a Dh in series [2] of 64 nm.

PMMA90-b-poly(PepAm21-co-DMA63) [P8]: the “diameter / average size by TEM” value in series [1] (dry-state TEM) is 24 nm. The “hydrodynamic diameter / size by DLS” value in series [2] is 28 nm. Further, in series [4], the “morphology change of micelles after treatment with thermolysin” value (“morphology change of micelles” below) is given as “phase transition into a worm-like phase”. The “change in particle diameter with deactivated thermolysin” value in [4] (thermolysin pretreated with ethylenediaminetetraacetic acid, same cleavage conditions, DLS) is given as “no change in diameter”.

Regarding GPLGLAGG, the cleaved bond entry in series [5] was “glycine (G)-leucine (L)”.

poly(PepAm6-co-DMA7) [P1]: the “time within which thermolysin-induced peptide cleavage was complete” value in series [6] was not above 1 h.

As to KLAKLAKKLAKLAK, the fragment found entry in series [7] is “LAK”.

Turning to “poly[(KLAAm10-co-DMA30)-b-(DAAm70-co-DMA30)] (KLAKLAKKLAKLAK) [NP1, KLA peptide brush polymer nanoparticle]”, in series [1], the Rcore is listed as 13 nm. In series [2], this compound displayed a Dh of 36 nm and a Rh of 18 nm. In series [3], this compound displayed a Zeta potential of 47 mV.

On to `CC(C)C[C@H](NC(=O)[C@H](CCCCN)NC(=O)[C@H](C)NC(=O)[C@H](CC(C)C)NC(=O)[C@H](CCCCN)NC(=O)[C@H](CCCCN)NC(=O)[C@H](C)NC(=O)[C@H](CC(C)C)NC(=O)[C@H](CCCCN)NC(=O)[C@H](C)NC(=O)[C@H](CC(C)C)NC(=O)[C@@H](N)CCCCN)C(=O)N[C@@H](C)C(=O)N[C@@H](CCCCN)C(N)=O` [KLA peptide, KLAKLAKKLAKLAK, reference compound], for which the “cytotoxicity to HeLa cells” value in series [8] was “did not exhibit cytotoxicity”. Also, in series [9], the metabolised at 1 h, 200 μM came out at 100%.

As to “poly[(KLAAm10-co-DMA10)-b-(DAAm280-co-DMA120)] (KLAKLAKKLAKLAK) [NP5, KLA peptide brush polymer nanoparticle]”, the “red fluorescence of JC-1 J-aggregates (mitochondrial membrane potential)” value in [10] is on record as “almost no red emission”. Also, in series [2], the Dh is 92 nm. The “cytotoxicity in HeLa cells” value in series [11] is recorded as “dose-dependent cytotoxicity”. In series [11] (HeLa cells), the “toxicity compared between nanoparticles” value is “significantly higher than NP3”.

For poly(KLAAm25-co-DMA25), the “cellular uptake by flow cytometry” value in [12] is recorded as “clearly outperformed more sparsely grafted polypeptide brushes”.

Regarding PnBA200-b-poly(PepAm36-co-DMA123) [P9], the “morphology change of micelles” value in [4] was “transition from spherical micelle to a mixture of micelles and fiber structure”.

With poly(PepAm21-co-DMA71) [P4], in series [6], the “time within which thermolysin-induced peptide cleavage was complete” value is not above 1 h. The “hydrodynamic diameter / size by DLS” value in series [2] is less than 10 nm.

Regarding PMMA90-b-poly(PepAm9-co-DMA30) [P7], the “morphology change of micelles” value in series [4] was “transition from spherical micelle to fused worm micelles”.

For the compound “poly[(KLAAm10-co-DMA30)-b-(DAAm280-co-DMA120)] (KLAKLAKKLAKLAK) [NP3, KLA peptide brush polymer nanoparticle]”, the Rcore in [1] is 46 nm. In addition, in series [2], the Dh is reported as 105 nm and the Rh is 52 nm. The compound also displayed a Zeta potential in series [3] of 48 mV. The “cytotoxicity in HeLa cells” value in series [11] is reported as “dose-dependent cytotoxicity”.

As a reminder, the pKa is the negative logarithm of the acid dissociation constant. Turning to `C=CC(=O)NCCCCCC(=O)N[C@@H](CCCCN)C(=O)N[C@@H](CC(C)C)C(=O)N[C@@H](C)C(=O)N[C@@H](CCCCN)C(=O)N[C@@H](CC(C)C)C(=O)N[C@@H](C)C(=O)N[C@@H](CCCCN)C(=O)N[C@@H](CCCCN)C(=O)N[C@@H](CC(C)C)C(=O)N[C@@H](C)C(=O)N[C@@H](CCCCN)C(=O)N[C@@H](CC(C)C)C(=O)N[C@@H](C)C(=O)N[C@@H](CCCCN)C(N)=O` [KLAAm], the “cytotoxicity to HeLa cells” value in [8] was “did not exhibit cytotoxicity”. In addition, the “maximum concentration in water” value in [13] is on record as “about 100 mM”. In series [9], the metabolised at 1 h, 200 μM amounted to 100%. The pKa in series [14] was 9.

Turning to poly(KLAAm10), the “cellular uptake by flow cytometry” value in [12] is “clearly outperformed more sparsely grafted polypeptide brushes”.
